Measurements taken from the supplement of paper PMC9112550, “Optimization of the antimicrobial peptide Bac7 by deep mutational scanning” (BMC Biology, 2022).

System: Escherichia coli TOP10
Assay: shrunken log2 fold change of peptide-encoding DNA abundance (4.5 h post-induction vs induction); higher = less antimicrobial activity (less host growth inhibition)
Conditions: time post-induction: 4.5 h; library: site-saturation at positions 5, 18, 19, 20
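Further: peptides expressed intracellularly from a pBAD plasmid library in pooled LB shake-flask culture, induced with 0.3% L-arabinose, DNA abundance read by NGS, three biological replicates, DESeq2 with apeglm shrinkage.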

Sequence | shrunken log2 fold change
RRIRRRPPRLPRPRPRPPLVPRP | 1.23
RRIRERPPRLPRPRPRPCFQPRP | -0.25
RRIRMRPPRLPRPRPRPHGSPRP | 0.0248
RRIRQRPPRLPRPRPRPNVAPRP | 0.236
RRIRSRPPRLPRPRPRPMMIPRP | -0.196
RRIRHRPPRLPRPRPRPTDSPRP | 0.0894
RRIRERPPRLPRPRPRPEFPPRP | -0.00557
RRIRSRPPRLPRPRPRPWNLPRP | -1.05
RRIRYRPPRLPRPRPRPAVYPRP | -0.0166
RRIRQRPPRLPRPRPRPCLAPRP | 0.297
RRIRKRPPRLPRPRPRPPPQPRP | 1.02
RRIRPRPPRLPRPRPRPSDVPRP | -0.249
RRIRDRPPRLPRPRPRPMYDPRP | -0.208
RRIRARPPRLPRPRPRPDAMPRP | 1.02
RRIRYRPPRLPRPRPRPKPKPRP | 0.394
RRIRERPPRLPRPRPRPPGFPRP | 0.479
RRIRTRPPRLPRPRPRPWDTPRP | -0.15
RRIRERPPRLPRPRPRPQLPPRP | 0.021
RRIRGRPPRLPRPRPRPQRYPRP | -0.00818
RRIRYRPPRLPRPRPRPQINPRP | -0.669
RRIRERPPRLPRPRPRPTAYPRP | -0.166
RRIRFRPPRLPRPRPRPDRYPRP | -0.0446
RRIRSRPPRLPRPRPRPFNDPRP | -0.223
RRIRRRPPRLPRPRPRPAVHPRP | 0.321
RRIRARPPRLPRPRPRPDTDPRP | 0.365

Sequence | shrunken log2 fold change
RRIRTRPPRLPRPRPRPDSKPRP | 0.0427
RRIRPRPPRLPRPRPRPKPGPRP | 0.684
RRIRARPPRLPRPRPRPFKHPRP | -0.27
RRIRNRPPRLPRPRPRPEADPRP | 0.0747
RRIRSRPPRLPRPRPRPVVHPRP | -0.126
RRIRMRPPRLPRPRPRPRETPRP | 1.49
RRIRWRPPRLPRPRPRPTHLPRP | 0.0424
RRIRQRPPRLPRPRPRPYCIPRP | -0.0416
RRIRTRPPRLPRPRPRPYFLPRP | -1.18
RRIRFRPPRLPRPRPRPIFKPRP | -0.153
RRIRHRPPRLPRPRPRPPCYPRP | -0.131
RRIRGRPPRLPRPRPRPINQPRP | -0.0767
RRIRWRPPRLPRPRPRPAKMPRP | 0.519
RRIRIRPPRLPRPRPRPNCEPRP | -0.525
RRIRWRPPRLPRPRPRPMKDPRP | -0.141
RRIRSRPPRLPRPRPRPSFEPRP | 0.0257
RRIRWRPPRLPRPRPRPPPMPRP | 0.72
RRIRERPPRLPRPRPRPYSDPRP | -0.308
RRIRQRPPRLPRPRPRPFYIPRP | 0.0172
RRIRYRPPRLPRPRPRPEWVPRP | -0.0265
RRIRRRPPRLPRPRPRPPWRPRP | 0.757
RRIRMRPPRLPRPRPRPNFMPRP | -0.0364
RRIRHRPPRLPRPRPRPVWNPRP | -0.402
RRIRTRPPRLPRPRPRPTQKPRP | -0.0787
RRIRIRPPRLPRPRPRPLKFPRP | -0.373

Sequence | shrunken log2 fold change
RRIRLRPPRLPRPRPRPRETPRP | -0.0213
RRIRIRPPRLPRPRPRPSVHPRP | -0.278
RRIRVRPPRLPRPRPRPCQGPRP | -0.226
RRIRPRPPRLPRPRPRPRMVPRP | -0.263
RRIRGRPPRLPRPRPRPERVPRP | 0.397
RRIRSRPPRLPRPRPRPEHFPRP | -0.246
RRIRHRPPRLPRPRPRPYMVPRP | -0.0357
RRIRLRPPRLPRPRPRPWFMPRP | -0.0837
RRIRRRPPRLPRPRPRPPKVPRP | 0.693
RRIRTRPPRLPRPRPRPIANPRP | 0.207
RRIRMRPPRLPRPRPRPFKKPRP | 0.0258
RRIRFRPPRLPRPRPRPTRDPRP | 0.613
RRIRVRPPRLPRPRPRPNTTPRP | -0.227
RRIRYRPPRLPRPRPRPGACPRP | -0.497
RRIRTRPPRLPRPRPRPMCLPRP | 0.0631
RRIRCRPPRLPRPRPRPNSRPRP | -0.175
RRIRKRPPRLPRPRPRPKYCPRP | -0.632
RRIRTRPPRLPRPRPRPPAWPRP | 0.663
RRIRMRPPRLPRPRPRPSVPPRP | -0.0568
RRIRARPPRLPRPRPRPKLSPRP | 0.138
RRIRIRPPRLPRPRPRPEYPPRP | -1.05
RRIRNRPPRLPRPRPRPPGHPRP | 0.463
RRIRFRPPRLPRPRPRPSTSPRP | -0.0297
RRIRSRPPRLPRPRPRPPICPRP | 0.635
RRIRNRPPRLPRPRPRPTHKPRP | 0.322

Sequence | shrunken log2 fold change
RRIRERPPRLPRPRPRPCRMPRP | -0.363
RRIRGRPPRLPRPRPRPPSGPRP | 0.766
RRIRKRPPRLPRPRPRPGSPPRP | 0.166
RRIRSRPPRLPRPRPRPSKNPRP | -0.306
RRIRTRPPRLPRPRPRPNLFPRP | 0.0121
RRIRDRPPRLPRPRPRPGEIPRP | 0.501
RRIRVRPPRLPRPRPRPNGKPRP | -0.407
RRIRWRPPRLPRPRPRPGGAPRP | 0.691
RRIRVRPPRLPRPRPRPRIWPRP | 0.468
RRIRDRPPRLPRPRPRPPCPPRP | 0.173
RRIRCRPPRLPRPRPRPDIPPRP | -0.331
RRIRSRPPRLPRPRPRPPYPPRP | 0.0516
RRIRMRPPRLPRPRPRPVHKPRP | -0.0081
RRIRERPPRLPRPRPRPLGTPRP | -0.0681
RRIRHRPPRLPRPRPRPSPGPRP | -0.051
RRIRVRPPRLPRPRPRPHFGPRP | -0.0294
RRIRCRPPRLPRPRPRPWDEPRP | 0.247
RRIRMRPPRLPRPRPRPHGHPRP | 0.256
RRIRCRPPRLPRPRPRPYNIPRP | -1.27
RRIRKRPPRLPRPRPRPEQLPRP | -0.0173
RRIRFRPPRLPRPRPRPHLHPRP | -0.511
RRIRGRPPRLPRPRPRPSHKPRP | -0.157
RRIRFRPPRLPRPRPRPENWPRP | 0.0986
RRIRLRPPRLPRPRPRPSNVPRP | -0.288
RRIRMRPPRLPRPRPRPEFVPRP | 0.383

Sequence | shrunken log2 fold change
RRIRFRPPRLPRPRPRPWVIPRP | -0.412
RRIRKRPPRLPRPRPRPKIVPRP | 0.0401
RRIRRRPPRLPRPRPRPTSCPRP | -0.108
RRIRPRPPRLPRPRPRPIVGPRP | -0.00131
RRIRGRPPRLPRPRPRPCKIPRP | -0.189
RRIRKRPPRLPRPRPRPPGRPRP | 2.07
RRIRNRPPRLPRPRPRPPHCPRP | 0.0234
RRIRGRPPRLPRPRPRPMDCPRP | 0.357
RRIRSRPPRLPRPRPRPLYPPRP | -0.813
RRIRVRPPRLPRPRPRPYMSPRP | -0.583
RRIRRRPPRLPRPRPRPEWWPRP | -0.0131
RRIRPRPPRLPRPRPRPSALPRP | -0.00612
RRIRYRPPRLPRPRPRPDHPPRP | 0.0184
RRIRCRPPRLPRPRPRPDCGPRP | -0.169
RRIRTRPPRLPRPRPRPIYEPRP | -0.246
RRIRFRPPRLPRPRPRPMTEPRP | -0.0907
RRIRNRPPRLPRPRPRPLQQPRP | 0.0184
RRIRFRPPRLPRPRPRPSWWPRP | 0.212
RRIRWRPPRLPRPRPRPWRQPRP | 0.25
RRIRGRPPRLPRPRPRPFRRPRP | 0.234
RRIRMRPPRLPRPRPRPIYLPRP | -0.268
RRIRTRPPRLPRPRPRPTHDPRP | 0.139
RRIRDRPPRLPRPRPRPQWLPRP | 0.24
RRIRRRPPRLPRPRPRPKKRPRP | 0.976
RRIRPRPPRLPRPRPRPFIYPRP | -0.0739

Sequence | shrunken log2 fold change
RRIRSRPPRLPRPRPRPDARPRP | 0.1
RRIRWRPPRLPRPRPRPLNRPRP | -0.274
RRIRFRPPRLPRPRPRPYVDPRP | -0.00112
RRIRFRPPRLPRPRPRPKVHPRP | 0.146
RRIRPRPPRLPRPRPRPYSAPRP | -1.14
RRIRDRPPRLPRPRPRPYNNPRP | -0.489
RRIRWRPPRLPRPRPRPKVNPRP | 0.175
RRIRPRPPRLPRPRPRPIDCPRP | -0.0101
RRIRQRPPRLPRPRPRPSGDPRP | -0.00374
RRIRTRPPRLPRPRPRPFSSPRP | -0.399
RRIRPRPPRLPRPRPRPMCEPRP | -0.0631
RRIRFRPPRLPRPRPRPVGKPRP | 0.13
RRIRGRPPRLPRPRPRPIINPRP | 0.0488
RRIRIRPPRLPRPRPRPWYKPRP | -0.689
RRIRLRPPRLPRPRPRPVRRPRP | 0.276
RRIRFRPPRLPRPRPRPRLEPRP | 0.392
RRIRLRPPRLPRPRPRPFEVPRP | 0.0377
RRIRDRPPRLPRPRPRPYQPPRP | -0.0769
RRIRERPPRLPRPRPRPFALPRP | -0.256
RRIRGRPPRLPRPRPRPQSNPRP | 0.518
RRIRPRPPRLPRPRPRPTQLPRP | 0.166
RRIRWRPPRLPRPRPRPRYEPRP | 0.0756
RRIRIRPPRLPRPRPRPDRDPRP | -0.0646
RRIRNRPPRLPRPRPRPIKLPRP | -0.0869
RRIRTRPPRLPRPRPRPEKEPRP | 0.0172
